According to publication PMC7800377:
One block for each binder: values may come before it.

What was measured:
[1] = target: SUN domain of human SUN1 (amino acid residues 616–812), tags removed (human); test: SEC-MALS; co-expressed and co-purified samples at >1 mg/ml on Superdex 200 Increase 10/300 GL in 20 mM Tris pH 8.0, 150 mM KCl, 2 mM DTT
[2] = target: SUN domain of human SUN1 (amino acid residues 616–812), tags removed (human); test: SEC-MALS; SUN1-KASH4 after removal of bound zinc by treatment with EDTA
[3] = target: SUN1 I673E (SUN domain of human SUN1, residues 616–812, I673E), GCN4 tag removed (human); test: SEC-MALS; co-expressed and co-purified samples at >1 mg/ml on Superdex 200 Increase 10/300 GL in 20 mM Tris pH 8.0, 150 mM KCl, 2 mM DTT

stoichiometry N (binder:target ratio (6:6)) [1]: 1
B1: KASH domain of human KASH5 (amino acid residues 542–562), tags removed (domain or fragment)
chain: GPSPPPTWPHLQLCYLQPPPV

stoichiometry N (binder:target ratio (6:6)) [2]: 1 | stoichiometry N (binder:target ratio (12:12)) [2]: 1 | stoichiometry N (binder:target ratio (6:6)) [1]: 1 | stoichiometry N (binder:target ratio (6:6)) [3]: 1
B2: KASH domain of human Nesprin-4 (KASH4, amino acid residues 376–404), tags removed (domain or fragment)
chain: ASGGPCCSHARIPRTPYLVLSYVNGLPPV
